According to paper PMC8669397:

What was measured:
[1] = target: E. coli MukB(G67C)-HaloTag (E. coli) (UniProt P22523); assay: cross-linking; in vivo BMOE combinatorial cysteine cross-linking, cells grown to stationary phase; SDS-PAGE and in-gel fluorescence of MukB-HaloTag-TMR
[2] = target: E. coli MukB(G67C)-HaloTag (E. coli) (UniProt P22523); assay: cross-linking; in vivo BMOE cysteine cross-linking of E. coli cells in exponential phase, 10 min on ice in PBS; SDS-PAGE and in-gel fluorescence of MukB-HaloTag-TMR
[3] = target: E. coli MukB(R771C)-HaloTag with natural C730 (E. coli) (UniProt P22523); assay: cross-linking; in vivo BMOE combinatorial cysteine cross-linking, cells grown to stationary phase; SDS-PAGE and in-gel fluorescence of MukB-HaloTag-TMR
[4] = target: E. coli MukB(G67C, E1407Q)-HaloTag (E. coli) (UniProt P22523); assay: cross-linking; in vivo BMOE cysteine cross-linking of E. coli cells in exponential phase, 10 min on ice in PBS; SDS-PAGE and in-gel fluorescence of MukB-HaloTag-TMR
[5] = target: E. coli MukB(G67C, R771C)-HaloTag with natural C730 (E. coli) (UniProt P22523); assay: cross-linking; in vivo BMOE combinatorial cysteine cross-linking, cells grown to stationary phase; SDS-PAGE and in-gel fluorescence of MukB-HaloTag-TMR
[6] = target: E. coli MukB(G67C, D1406A)-HaloTag (E. coli) (UniProt P22523); assay: cross-linking; in vivo BMOE cysteine cross-linking of E. coli cells in exponential phase, 10 min on ice in PBS; SDS-PAGE and in-gel fluorescence of MukB-HaloTag-TMR

E. coli MukB(G67C)-HaloTag (from UniProt P22523 1-1486) (natural protein)
MukB species cross-linked at the heads [1]: 29% | cross-linked fraction [2]: 22%

E. coli MukB(R771C)-HaloTag with natural C730 (from UniProt P22523 1-1486) (natural protein)
cross-linking efficiency [3]: 62%

E. coli MukB(G67C, E1407Q)-HaloTag (from UniProt P22523 1-1486) (natural protein)
cross-linked fraction [4]: 30%

E. coli MukB(G67C, R771C)-HaloTag with natural C730 (from UniProt P22523 1-1486) (natural protein)
MukB species cross-linked at the heads [5]: 12%

E. coli MukB(G67C, D1406A)-HaloTag (from UniProt P22523 1-1486) (natural protein)
cross-linked fraction [6]: 21%
